Two molecules from US20230330242A1 (published 2023) can be followed below.

The target in experiment [1] is T1, human ROR-1 endogenously expressed on JeKo-1 and MDA-MB-468 cells (human, UniProt Q01973 30-937).
T1 construct: whole, on cells; also called ROR-1 receptor; receptor tyrosine kinase like orphan receptor 1
The experiment in a line: flow cytometry, cell binding saturation on ROR-1 positive cells. How it is done:
A cell binding saturation assay was developed to evaluate how well the anti_ROR-1 antibodies developed in Example 28 bound to endogenously expressed extracellular ROR-1 protein on cell lines. […] Cells were then washed and subjected to secondary antibody staining and detection by flow cytometry. Mean fluorescence (MFI) was determined by analysis on cytometer software. […] (See FIG. 27).
Background: Flow cytometry measures light scatter and fluorescence of single cells or particles in a stream.

The target of experiment [2] is T1, human ROR-1 endogenously expressed on …. The experiment in a line: cell-based or functional assay.
The next experiment has as its target T2, Mouse ROR1-His (mouse, UniProt Q9Z139 30-403, limits assumed).
T2 construct: Purified His-tagged mouse ROR1 protein; not shown: His tag
The experiment in a line: SPR, purified protein. (Surface plasmon resonance follows binding to a sensor surface in real time, without labels.)

A further experiment deals with T3, Hu/Cy/Rh ROR1-His (human/cyno/rhesus, UniProt Q01973 30-403, limits assumed).
T3 construct: Purified His-tagged ROR1 protein; also called HUMAN/CYNO/RHESUS ROR-1; not shown: His tag
The experiment can be described thus: SPR, purified protein.

T2 sequence (Q9Z139 30-403 limits assumed): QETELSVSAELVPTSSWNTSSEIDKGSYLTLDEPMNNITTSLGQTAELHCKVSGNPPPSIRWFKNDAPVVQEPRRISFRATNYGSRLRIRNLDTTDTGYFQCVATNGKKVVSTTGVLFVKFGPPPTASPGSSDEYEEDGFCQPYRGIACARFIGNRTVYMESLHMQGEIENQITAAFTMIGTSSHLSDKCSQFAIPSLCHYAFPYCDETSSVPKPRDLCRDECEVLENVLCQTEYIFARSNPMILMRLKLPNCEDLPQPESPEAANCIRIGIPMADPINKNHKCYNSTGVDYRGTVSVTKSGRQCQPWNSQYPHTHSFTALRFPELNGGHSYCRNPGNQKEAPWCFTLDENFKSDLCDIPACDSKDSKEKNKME

B1: ATX-P-875 (antibody, human IgG1, kappa, V domains shown)
VH: not shown
VL: DIQMTQSPSSLSASVGDRVTITCRASQSISSYLNWYQQKPGKAPKLLIYAASSLQSGVPSRFSGSGSGTDFTLTISSLQPEDFATYYCQQYDNLPITFGQGTRLEIKR
notes: Full length IgG (IgG1, kappa) expressed in HEK293; also called mAb A
In experiment [1], B1 displayed a saturating concentration of 74 nM.

B2: ATX-P-885 (antibody, human IgG1, kappa, V domains shown)
VH: QVQLQQWGAGLLKPSETLSLTCAVYGGSFSGYYWSWIRQPPGKGLEWIGEINHSGSTNYNPSLKSRVTISVDTSKNQFSLKLSSVTAADTAVYYCAREGVYEDYWGQGTLVTVSS
VL: EIVLTQSPATLSLSPGERATLSCRASQSVSNYLAWYQQKPGQAPRLLIYDAYNRATGIPARFSGSGSGTDFTLTISSLEPEDFAVYYCQQRSNWPLTFGQGTRLEIKR
notes: Full length IgG (IgG1, kappa) expressed in HEK293; also called mAb B
What is called Kd is the free concentration of one partner at which half of the binding sites on the other are occupied at equilibrium, for simple one-to-one binding. A lower Kd goes with a tighter complex. As usually defined, the koff is the rate constant with which the complex falls apart. Read a high koff as a short-lived complex. As usually defined, the kon is the second-order rate constant of association. Low readings indicate slow association, high ones fast association. For the molecule B2, the “percent receptor internalization relative to zero hours” value in experiment [2] was no less than 75%. This molecule also showed a saturating concentration in experiment [1] of 74 nM. In the experiment with Mouse ROR1-His, this molecule showed a Kd of 45.3 nM, a koff of 0.00132 s⁻¹ and an association rate constant (kon) of 29200 M⁻¹ s⁻¹. In the experiment with Hu/Cy/Rh ROR1-His, this molecule came in with a Kd of 10.9 nM, a koff of 0.00295 s⁻¹ and a kon of 270000 M⁻¹ s⁻¹.
